The test system of this assay is mutant form of α-Gal A expressed in HEK-293 cells. Briefly: HEK assay (GLP HEK / Migalastat Amenability Assay): α-Gal A activity in lysates of transiently transfected HEK-293 cells incubated with or without 10 μM migalastat. It is filed as cell-based, human. Conditions: for Absolute increase (% WT): 10 μM migalastat versus baseline; for Relative increase: 10 μM migalastat α-Gal A activity relative to baseline; for 10 μM migalastat α-Gal A activity (% WT): 5 days; for 10 μM migalastat α-Gal A activity (% WT) / Baseline α-Gal A activity (% WT): percentage of baseline wild-type α-Gal A activity; for 10 μM migalastat α-Gal A activity (% WT) / Baseline α-Gal A activity (% WT) / Baseline α-Gal A activity / 10 μM migalastat α-Gal A activity: mean ± SEM; for Baseline α-Gal A activity (% WT): absence of migalastat; for Baseline α-Gal A activity / 10 μM migalastat α-Gal A activity: lysates of HEK-293 cells transfected with the mutant form; for Baseline α-Gal A activity: incubated 5 days in the absence of migalastat; for 10 μM migalastat α-Gal A activity: incubated 5 days with 10 μM migalastat. The method in brief: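 HEK-293 cells transiently transfected with mutant α-Gal A and incubated with or without 10 μM migalastat; lysate activity given as nmol free 4-MU released per mg protein per hour. Values are mean±SEM.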

B1: A181V (protein)
chain: MQLRNPELHLGCALALRFLALVSWDIPGARALDNGLARTPTMGWLHWERFMCNLDCQEEPDSCISEKLFMEMAELMVSEGWKDAGYEYLCIDDCWMAPQRDSEGRLQADPQRFPHGIRQLANYVHSKGLKLGIYADVGNKTCAGFPGSFGYYDIDAQTFADWGVDLLKFDGCYCDSLENLVDGYKHMSLALNRTGRSIVYSCEWPLYMWPFQKPNYTEIRQYCNHWRNFADIDDSWKSIKSILDWTSFNQERIVDVAGPGGWNDPDMLVIGNFGLSWNQQVTQMALWAIMAAPLFMSNDLRHISPQAKALLQDKDVIAINQDPLGKQGYQLRQGDNFEVWERPLSGLAWAVAMINRQEIGGPRSYTIAVASLGKGVACNPACFITQLLPVKRKLGFYEWTSRLRSHINPTGTVLLQLENTMQMSLKDLL
Consider B1, for which the “Absolute increase (% WT)” value was 14.2 % WT, the Relative increase is given as 1.2, the “10 μM migalastat α-Gal A activity (% WT)” value was 93.2 ± 5.3 % WT and the “Baseline α-Gal A activity (% WT)” value stood at 79.1 ± 3.5 % WT. The “Baseline α-Gal A activity” value was determined as 26667 ± 1945 nmol/mg/h and the “10 μM migalastat α-Gal A activity” value is 32358 ± 2863 nmol/mg/h.

B2: D182A (protein)
chain: MQLRNPELHLGCALALRFLALVSWDIPGARALDNGLARTPTMGWLHWERFMCNLDCQEEPDSCISEKLFMEMAELMVSEGWKDAGYEYLCIDDCWMAPQRDSEGRLQADPQRFPHGIRQLANYVHSKGLKLGIYADVGNKTCAGFPGSFGYYDIDAQTFADWGVDLLKFDGCYCDSLENLAAGYKHMSLALNRTGRSIVYSCEWPLYMWPFQKPNYTEIRQYCNHWRNFADIDDSWKSIKSILDWTSFNQERIVDVAGPGGWNDPDMLVIGNFGLSWNQQVTQMALWAIMAAPLFMSNDLRHISPQAKALLQDKDVIAINQDPLGKQGYQLRQGDNFEVWERPLSGLAWAVAMINRQEIGGPRSYTIAVASLGKGVACNPACFITQLLPVKRKLGFYEWTSRLRSHINPTGTVLLQLENTMQMSLKDLL
As to B2, the “Absolute increase (% WT)” value was 31.8 % WT, the Relative increase was found to be 1.3, the “10 μM migalastat α-Gal A activity (% WT)” value is given as 133.3 ± 8.2 % WT and the “Baseline α-Gal A activity (% WT)” value turned out to be 101.5 ± 5.7 % WT. Also, the “Baseline α-Gal A activity” value is 33673 ± 2886 nmol/mg/h and the “10 μM migalastat α-Gal A activity” value turned out to be 44436 ± 3828 nmol/mg/h.

B3: D182E (protein)
chain: MQLRNPELHLGCALALRFLALVSWDIPGARALDNGLARTPTMGWLHWERFMCNLDCQEEPDSCISEKLFMEMAELMVSEGWKDAGYEYLCIDDCWMAPQRDSEGRLQADPQRFPHGIRQLANYVHSKGLKLGIYADVGNKTCAGFPGSFGYYDIDAQTFADWGVDLLKFDGCYCDSLENLAEGYKHMSLALNRTGRSIVYSCEWPLYMWPFQKPNYTEIRQYCNHWRNFADIDDSWKSIKSILDWTSFNQERIVDVAGPGGWNDPDMLVIGNFGLSWNQQVTQMALWAIMAAPLFMSNDLRHISPQAKALLQDKDVIAINQDPLGKQGYQLRQGDNFEVWERPLSGLAWAVAMINRQEIGGPRSYTIAVASLGKGVACNPACFITQLLPVKRKLGFYEWTSRLRSHINPTGTVLLQLENTMQMSLKDLL
Turning to B3, the “Absolute increase (% WT)” value was found to be 32.3 % WT, the Relative increase is given as 1.4, the “10 μM migalastat α-Gal A activity (% WT)” value is 117.1 ± 4.5 % WT and the “Baseline α-Gal A activity (% WT)” value was 84.8 ± 4 % WT. Besides, the “Baseline α-Gal A activity” value came out at 28082 ± 2023 nmol/mg/h and the “10 μM migalastat α-Gal A activity” value is 38956 ± 2806 nmol/mg/h.

The values are drawn from patent US11833164B2, “Methods of treating Fabry disease in patients having a mutation in the GLA gene” (Amicus Therapeutics, Inc., priority 2019, dated 2023).
